Reference: paper PMC10786891, “Massively parallel profiling of RNA-targeting CRISPR-Cas13d”
Residue numbers refer to the chain shown, from its start. In names and notes the source's numbering stands.

B1: target 1 insC 3' of 17,insU 3' of 16 (mixed)
RNA 1: CACCCGUGCAAAAAUGCAGGGGUCUAAAACUGAGCGGAUAACCUCUCUAUGG
RNA 2: GGGAAUGGAUCCACAUCUACGAAUUCGUACCAUAGCAUGAGGUUAUCCGCUCACCGAGAUCGGAAGAGCACACGU
B2: target 1 A1G,U19C (mixed)
RNA 1: B1 RNA 1
RNA 2: GGGAAUGGAUCCACAUCUACGAAUUCGUACCACAGAGAGGUUAUCCGCUCGCCGAGAUCGGAAGAGCACACGU
B3: target 1 insC 3' of 20,insU 3' of 13 (mixed)
RNA 1: B1 RNA 1
RNA 2: B1 RNA 2 with U33C, A34U, G35A, C36G, U38G, G39A, A40G, G41U
B4: target 1 insA 3' of 15,insA 3' of 3 (mixed)
RNA 1: B1 RNA 1
RNA 2: GGGAAUGGAUCCACAUCUACGAAUUCGUACCAUAGAGAAGGUUAUCCGCUACACCGAGAUCGGAAGAGCACACGU
B5: target 1 insU 3' of 4,insG 3' of 3 (mixed)
RNA 1: B1 RNA 1
RNA 2: B4 RNA 2 with A39G, G41U, U43A, A44U, U45C, C47G, G48C, C49U, A51G
B6: target 1 insU 3' of 9,insC 3' of 1 (mixed)
RNA 1: B1 RNA 1
RNA 2: B4 RNA 2 with A39G, G41U, U43A, A44U, A51C, C52A, A53C
B7: target 1 C2U,U19A (mixed)
RNA 1: B1 RNA 1
RNA 2: B2 RNA 2 with C33A, C50U, G51A
B8: target 1 insC 3' of 1,insG 3' of 1 (mixed)
RNA 1: B1 RNA 1
RNA 2: GGGAAUGGAUCCACAUCUACGAAUUCGUACCAUAGAGAGGUUAUCCGCUCACGCCGAGAUCGGAAGAGCACACGU
B9: target 1 U10C,G17U (mixed)
RNA 1: B1 RNA 1
RNA 2: B2 RNA 2 with C33U, G35U, U42C, G51A
B10: target 1 U8C,A20C (mixed)
RNA 1: B1 RNA 1
RNA 2: B2 RNA 2 with A32C, C33U, U44C, G51A
B11: target 1 insC 3' of 1,insU 3' of 1 (mixed)
RNA 1: B1 RNA 1
RNA 2: B8 RNA 2 with G53U
B12: target 1 A1G (mixed)
RNA 1: B1 RNA 1
RNA 2: B2 RNA 2 with C33U
B13: target 1 insC 3' of 22,insG 3' of 21 (mixed)
RNA 1: B1 RNA 1
RNA 2: B1 RNA 2 with A32C, U33G, G35U, C36A, A37G, U38A
B14: target 1 U10A,C22G (mixed)
RNA 1: B1 RNA 1
RNA 2: B2 RNA 2 with C30G, C33U, U42A, G51A
B15: target 1 insA 3' of 22,insA 3' of 12 (mixed)
RNA 1: B1 RNA 1
RNA 2: GGGAAUGGAUCCACAUCUACGAAUUCGUACACAUAGAGAGGAUUAUCCGCUCACCGAGAUCGGAAGAGCACACGU
B16: target 1 insC 3' of 3,insA 3' of 3 (mixed)
RNA 1: B1 RNA 1
RNA 2: B8 RNA 2 with G53A
B17: target 1 G5C,U11A (mixed)
RNA 1: B1 RNA 1
RNA 2: B2 RNA 2 with C33U, U41A, G47C, G51A
B18: target 1 insC 3' of 15,insC 3' of 5 (mixed)
RNA 1: B1 RNA 1
RNA 2: B4 RNA 2 with A38C, U50C, A51U
B19: target 1 insC 3' of 1,insC 3' of 1 (mixed)
RNA 1: B1 RNA 1
RNA 2: B8 RNA 2 with G53C
B20: target 1 A1C,A9C (mixed)
RNA 1: B1 RNA 1
RNA 2: B2 RNA 2 with C33U, A43C, G51C
B21: target 1 insC 3' of 3,insU 3' of 1 (mixed)
RNA 1: B1 RNA 1
RNA 2: B8 RNA 2 with A51C, C52A, G53U
B22: target 1 C6A,A18C (mixed)
RNA 1: B1 RNA 1
RNA 2: B2 RNA 2 with C33U, A34C, C46A, G51A
B23: target 1 C4G,A16G (mixed)
RNA 1: B1 RNA 1
RNA 2: B2 RNA 2 with C33U, A36G, C48G, G51A
B24: target 1 U11C,A18U (mixed)
RNA 1: B1 RNA 1
RNA 2: B2 RNA 2 with C33U, A34U, U41C, G51A
B25: target 1 insG 3' of 11,insU 3' of 7 (mixed)
RNA 1: B1 RNA 1
RNA 2: B4 RNA 2 with A39G, G41U, U42G, C47U, G48C, C49G, U50C, A51U
B26: target 1 C7A,U8G (mixed)
RNA 1: B1 RNA 1
RNA 2: B2 RNA 2 with C33U, U44G, C45A, G51A
B27: target 1 insC 3' of 11,insA 3' of 2 (mixed)
RNA 1: B1 RNA 1
RNA 2: B4 RNA 2 with A39G, G41U, U42C, A51C, C52A
B28: target 1 insC 3' of 18,insA 3' of 13 (mixed)
RNA 1: B1 RNA 1
RNA 2: B1 RNA 2 with G35C, C36G, U38G, G39A, A40G, G41A
B29: target 1 U19C (mixed)
RNA 1: B1 RNA 1
RNA 2: B2 RNA 2 with G51A
B30: target 1 A16C,A18U (mixed)
RNA 1: B1 RNA 1
RNA 2: B2 RNA 2 with C33U, A34U, A36C, G51A
B31: target 1 insC 3' of 11,insA 3' of 7 (mixed)
RNA 1: B1 RNA 1
RNA 2: B4 RNA 2 with A39G, G41U, U42C, C47A, G48C, C49G, U50C, A51U
B32: target 1 A1C (mixed)
RNA 1: B1 RNA 1
RNA 2: B2 RNA 2 with C33U, G51C
B33: target 1 A9C (mixed)
RNA 1: B1 RNA 1
RNA 2: B2 RNA 2 with C33U, A43C, G51A
B34: target 1 insC 3' of 19,insA 3' of 4 (mixed)
RNA 1: B1 RNA 1
RNA 2: B4 RNA 2 with A34C, G35A, A36G, G37A, A38G, U50A, A51U
B35: target 1 MT (mixed)
RNA 1: B1 RNA 1
RNA 2: B2 RNA 2 with C33U, G51A

Molecular target: T1, EsCas13d, nuclease-dead (Eubacterium siraeum, UniProt B0MS50, R295A;H300A;R849A;H854A)
T1 sequence: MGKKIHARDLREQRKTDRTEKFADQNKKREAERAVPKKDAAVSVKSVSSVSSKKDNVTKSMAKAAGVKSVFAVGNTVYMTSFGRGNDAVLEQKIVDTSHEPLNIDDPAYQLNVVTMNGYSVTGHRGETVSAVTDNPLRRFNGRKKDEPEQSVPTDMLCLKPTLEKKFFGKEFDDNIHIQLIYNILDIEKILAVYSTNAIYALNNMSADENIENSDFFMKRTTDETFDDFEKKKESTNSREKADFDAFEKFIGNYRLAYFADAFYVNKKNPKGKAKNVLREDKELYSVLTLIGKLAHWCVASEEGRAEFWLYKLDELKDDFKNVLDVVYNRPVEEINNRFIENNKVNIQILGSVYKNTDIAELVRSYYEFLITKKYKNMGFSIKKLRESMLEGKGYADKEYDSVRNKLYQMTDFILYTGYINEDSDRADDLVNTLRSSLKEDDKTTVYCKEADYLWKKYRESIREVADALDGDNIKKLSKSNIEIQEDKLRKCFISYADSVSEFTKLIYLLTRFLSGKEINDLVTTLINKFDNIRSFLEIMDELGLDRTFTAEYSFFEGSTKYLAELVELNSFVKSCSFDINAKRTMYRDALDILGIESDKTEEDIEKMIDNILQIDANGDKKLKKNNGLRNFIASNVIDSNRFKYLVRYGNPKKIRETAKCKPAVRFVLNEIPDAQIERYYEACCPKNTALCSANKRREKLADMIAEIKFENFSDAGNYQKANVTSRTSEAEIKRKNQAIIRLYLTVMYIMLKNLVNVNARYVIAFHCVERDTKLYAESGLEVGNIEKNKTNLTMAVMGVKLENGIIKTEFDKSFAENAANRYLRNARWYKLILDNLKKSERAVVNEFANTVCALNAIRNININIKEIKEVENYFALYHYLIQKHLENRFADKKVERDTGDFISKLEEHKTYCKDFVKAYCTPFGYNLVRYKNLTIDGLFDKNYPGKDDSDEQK
Experiment: crRNA (strand 1, pre-loaded); Mg2+; 40 mM Tris-HCl pH 7.5, 150 mM NaCl, 6 mM MgCl2, 1 mM DTT, 0.1% Tween-20, 0.2 mg/ml BSA; 25 C; 10 min per concentration, then washed
Conditions: tags: His6-TwinStrep-SUMO cleaved; N-terminal SNAP kept (SNAP-Surface 488); label: 3' end held by stalled T7 RNA polymerase

Binder | Kd [nM]
B1 | 40 ± 6
B2 | 35 ± 5
B3 | 6.9 ± 0.7
B4 | 7.48 ± 0.34
B5 | 7.77 ± 0.31
B6 | 14.8 ± 0.7
B7 | 26.5 ± 2.9
B8 | 9 ± 0.7
B9 | 55 ± 4
B10 | 65 ± 7
B11 | 10 ± 0.4
B12 | 8.6 ± 0.7
B13 | 27.3 ± 3.1
B14 | 76 ± 25
B15 | 47 ± 8
B16 | 9.8 ± 0.5
B17 | 46 ± 10
B18 | 9.8 ± 0.4

Binder | Kd [nM]
B19 | 11.2 ± 0.5
B20 | 22.5 ± 3
B21 | 10.8 ± 0.8
B22 | 54 ± 4
B23 | 16.3 ± 3.2
B24 | 45 ± 6
B25 | 24.9 ± 0.8
B26 | 9.8 ± 1.1
B27 | 38 ± 4
B28 | 24.4 ± 1.9
B29 | 21 ± 1.3
B30 | 89 ± 11
B31 | 25.7 ± 1.5
B32 | 24 ± 4
B33 | 15 ± 0.7
B34 | 25 ± 6
B35 | 8.62 ± 0.06
